{"source": "paper doi:10.1101/2023.12.08.570772", "key": {"[1]": {"target": "His-tagged full length (FL) wildtype (WT) RAD18 (human) (UniProt Q9NS91)", "sequence (Q9NS91 whole entry)": "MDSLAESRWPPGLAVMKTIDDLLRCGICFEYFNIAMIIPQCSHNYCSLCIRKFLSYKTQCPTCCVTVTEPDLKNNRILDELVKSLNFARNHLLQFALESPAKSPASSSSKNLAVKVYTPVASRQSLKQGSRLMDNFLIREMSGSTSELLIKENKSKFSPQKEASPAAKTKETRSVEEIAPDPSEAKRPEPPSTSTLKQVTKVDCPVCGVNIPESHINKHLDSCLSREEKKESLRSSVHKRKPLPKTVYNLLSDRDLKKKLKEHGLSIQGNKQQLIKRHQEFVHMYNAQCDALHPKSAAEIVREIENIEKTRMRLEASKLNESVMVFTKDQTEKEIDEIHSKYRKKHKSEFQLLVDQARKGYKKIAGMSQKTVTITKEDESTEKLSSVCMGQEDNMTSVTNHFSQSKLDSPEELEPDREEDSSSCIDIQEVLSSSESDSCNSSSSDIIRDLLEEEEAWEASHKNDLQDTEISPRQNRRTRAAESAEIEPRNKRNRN", "experiment": "AUC"}, "[2]": {"target": "His-tagged full length (FL) wildtype (WT) RAD18 (human) (UniProt Q9NS91)", "experiment": "mass photometry"}, "[3]": {"target": "RAD6 WT (N-terminal histidine tag, purified alone) (human) (UniProt P63146)", "sequence (P63146 whole entry)": "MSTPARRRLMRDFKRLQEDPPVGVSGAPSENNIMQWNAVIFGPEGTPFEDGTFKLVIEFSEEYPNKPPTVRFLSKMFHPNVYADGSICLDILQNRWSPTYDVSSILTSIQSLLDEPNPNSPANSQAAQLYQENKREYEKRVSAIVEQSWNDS", "experiment": "ITC"}, "[4]": {"target": "RAD18/RAD6 complex (full-length, purified) (human) (UniProt Q9NS91)", "sequence (Q9NS91 whole entry, chain 1 of 2)": "as the sequence (Q9NS91 whole entry) above", "sequence (P63146 whole entry, chain 2 of 2, further chain)": "as the sequence (P63146 whole entry) above", "experiment": "mass photometry"}}, "data": [{"substance": "His-tagged full length (FL) wildtype (WT) RAD18 (from UniProt Q9NS91 1-495) (enzyme)", "values": [{"measurement": "stoichiometry N", "setting": "[1]", "result": 2}, {"measurement": "stoichiometry N", "setting": "[2]", "result": 2}]}, {"substance": "RAD18 R6BD peptide (27 amino acid peptide containing amino acids 340-366 of RAD18) (from UniProt Q9NS91 340-366)", "values": [{"measurement": "Kd", "setting": "[3]", "result": 25.3, "unit": "µM"}]}, {"substance": "RAD6 of the purified RAD18/RAD6 complex (from UniProt P63146 1-152) (enzyme)", "values": [{"measurement": "stoichiometry N (RAD6 per RAD18)", "setting": "[1]", "result": 0.5}, {"measurement": "stoichiometry N (RAD6 per RAD18)", "setting": "[2]", "result": 0.5}]}, {"substance": "Full length MAGEA4 WT (N-terminal histidine tag) (from UniProt P43358 1-317) (natural protein)", "values": [{"measurement": "stoichiometry N", "setting": "[4]", "result": 1}]}]}
